Target: T1, HLA-A*02 (human)
T1 construct: Peptide-receptive MHC monomer made by UV cleavage of a UV-sensitive ligand and captured on streptavidin plates; also called HLA-A*02 MHC class I molecule; peptide-receptive MHC
Assay: UV-exchange ELISA (anti-b2m); yield 50%-75%
From the text: (§1) Candidate peptides for T cell based therapies according to the present invention were further tested for their MHC binding capacity (affinity). The individual peptide-MHC complexes were produced by UV-ligand exchange, where a UV-sensitive peptide is cleaved upon UV-irradiation, and exchanged with the peptide of interest as analyzed. Only peptide candidates that can effectively bind and stabilize the peptide-receptive MHC molecules prevent dissociation of the MHC complexes. To determine the yield of the exchange reaction, an ELISA was performed based on the detection of the light chain (β2m) of stabilized MHC complexes. The assay was performed as generally described in Rodenko et al. (Rodenko et al., 2006).
(§2) 96 well MAXISorp plates (NUNC) were coated over night with 2 ug/ml streptavidin in PBS at room temperature, washed 4× and blocked for 1 h at 37° C. in 2% BSA containing blocking buffer. […] Peptide-MHC monomers of the UV-exchange reaction were diluted 100 fold in blocking buffer. Samples were incubated for 1 h at 37° C., washed four times, incubated with 2 ug/ml HRP conjugated anti-β2m for 1 h at 37° C., washed again and detected with TMB solution that is stopped with […]. Absorption was measured at 450 nm.

Question: Which peptide exchange yield does the source give for KVLGKIEKV here?
Answer: The peptide exchange yield was 50 to 75%.

Question: TLLPTVLTL was tested. Which peptide exchange yield did it give?
Answer: Its peptide exchange yield is 50 to 75%.

Question: ALMAVVSGL was tested. Which peptide exchange yield did it give?
Answer: Its peptide exchange yield is 50 to 75%.

Question: LLLPLLPPLSPSLG was tested. Which peptide exchange yield did it give?
Answer: Its peptide exchange yield is 50 to 75%.

Question: With GLYQAQVNL as the binder, how does the peptide exchange yield read?
Answer: Its peptide exchange yield is 50 to 75%.

Question: VLRDNIQGI was tested. Which peptide exchange yield did it give?
Answer: The peptide exchange yield was 50 to 75%.

Question: Which peptide exchange yield does the source give for SLFNQEVQI here?
Answer: The peptide exchange yield was 50 to 75%.

Question: GLFSQHFNL (also called DNMT3B-001) was tested. Which peptide exchange yield did it give?
Answer: Its peptide exchange yield is 50 to 75%.

Question: How did the peptide exchange yield turn out when YVLNEEDLQKV was run?
Answer: The peptide exchange yield was 50 to 75%.

Question: TLLGKQVTL was tested. Which peptide exchange yield did it give?
Answer: The peptide exchange yield was 50 to 75%.

Question: Which peptide exchange yield does the source give for ALINDILGELVKL here?
Answer: Its peptide exchange yield is 50 to 75%.

Question: For SLLPLVWKI, which peptide exchange yield is on record?
Answer: The peptide exchange yield was 50 to 75%.

Question: With GIYDGILHSI as the binder, how does the peptide exchange yield read?
Answer: Its peptide exchange yield is 50 to 75%.

Question: For ELLSSIFFL, which peptide exchange yield is on record?
Answer: Its peptide exchange yield is 50 to 75%.

Question: With ALTKILAEL as the binder, how does the peptide exchange yield read?
Answer: The peptide exchange yield was 50 to 75%.

Question: With ILLDESNFNHFL as the binder, how does the peptide exchange yield read?
Answer: The peptide exchange yield was 50 to 75%.

Question: SIGDIFLKY was tested. Which peptide exchange yield did it give?
Answer: Its peptide exchange yield is 50 to 75%.

Question: Which peptide exchange yield does the source give for YLTEVFLHVV here?
Answer: Its peptide exchange yield is 50 to 75%.

Question: For LLDESKLTL, which peptide exchange yield is on record?
Answer: The peptide exchange yield was 50 to 75%.

Question: How did the peptide exchange yield turn out when FITDFYTTV was run?
Answer: The peptide exchange yield was 50 to 75%.

Question: ILLNTEDLASL was tested. Which peptide exchange yield did it give?
Answer: The peptide exchange yield was 50 to 75%.

Question: How did the peptide exchange yield turn out when TLCNKTFTA was run?
Answer: Its peptide exchange yield is 50 to 75%.

Question: With GTFLEGVAK as the binder, how does the peptide exchange yield read?
Answer: The peptide exchange yield was 50 to 75%.

Question: Which peptide exchange yield does the source give for ALDGHLYAI here?
Answer: The peptide exchange yield was 50 to 75%.

Question: For SLFGQEVYC, which peptide exchange yield is on record?
Answer: Its peptide exchange yield is 50 to 75%.

Question: SLLSHVIVA was tested. Which peptide exchange yield did it give?
Answer: Its peptide exchange yield is 50 to 75%.

Question: Which peptide exchange yield does the source give for ELAEIVFKV here?
Answer: Its peptide exchange yield is 50 to 75%.

Question: With LLWGHPRVA as the binder, how does the peptide exchange yield read?
Answer: The peptide exchange yield was 50 to 75%.

Question: For YLVAHNLLL, which peptide exchange yield is on record?
Answer: Its peptide exchange yield is 50 to 75%.

Question: For FVLPLVVTL, which peptide exchange yield is on record?
Answer: The peptide exchange yield was 50 to 75%.

Question: With LLLDGDFTL as the binder, how does the peptide exchange yield read?
Answer: The peptide exchange yield was 50 to 75%.

Question: For ELLEYLPQL, which peptide exchange yield is on record?
Answer: Its peptide exchange yield is 50 to 75%.

Question: How did the peptide exchange yield turn out when FLEEEITRV was run?
Answer: Its peptide exchange yield is 50 to 75%.

Question: How did the peptide exchange yield turn out when FLWPKEVEL was run?
Answer: Its peptide exchange yield is 50 to 75%.

Question: KMQEDLVTL was tested. Which peptide exchange yield did it give?
Answer: Its peptide exchange yield is 50 to 75%.

Question: How did the peptide exchange yield turn out when SLWFKPEEL was run?
Answer: Its peptide exchange yield is 50 to 75%.

Question: With ALYGKLLKL as the binder, how does the peptide exchange yield read?
Answer: The peptide exchange yield was 50 to 75%.

Question: Which peptide exchange yield does the source give for GRADALRVL here?
Answer: Its peptide exchange yield is 50 to 75%.

Question: For GLITVDIAL, which peptide exchange yield is on record?
Answer: Its peptide exchange yield is 50 to 75%.

Question: FINPKGNWLL was tested. Which peptide exchange yield did it give?
Answer: The peptide exchange yield was 50 to 75%.

Question: How did the peptide exchange yield turn out when SLLALPQDLQA was run?
Answer: Its peptide exchange yield is 50 to 75%.

Question: For KVFGDLDQV, which peptide exchange yield is on record?
Answer: The peptide exchange yield was 50 to 75%.

Question: VLGPTPELV was tested. Which peptide exchange yield did it give?
Answer: The peptide exchange yield was 50 to 75%.

Question: How did the peptide exchange yield turn out when ILSVVNSQL (also called KIAA0226L-002) was run?
Answer: Its peptide exchange yield is 50 to 75%.

Question: How did the peptide exchange yield turn out when IVLSTIASV was run?
Answer: The peptide exchange yield was 50 to 75%.

Question: Which peptide exchange yield does the source give for AIWKELISL here?
Answer: Its peptide exchange yield is 50 to 75%.

Question: For VLSPFILTL, which peptide exchange yield is on record?
Answer: The peptide exchange yield was 50 to 75%.

Question: Which peptide exchange yield does the source give for LLWAGPVTA here?
Answer: Its peptide exchange yield is 50 to 75%.

Question: GMIGFQVLL was tested. Which peptide exchange yield did it give?
Answer: Its peptide exchange yield is 50 to 75%.

Question: With ILADEAFFSV as the binder, how does the peptide exchange yield read?
Answer: The peptide exchange yield was 50 to 75%.

Question: How did the peptide exchange yield turn out when AAAAKVPEV was run?
Answer: Its peptide exchange yield is 50 to 75%.

Question: SLLTQPIFL was tested. Which peptide exchange yield did it give?
Answer: Its peptide exchange yield is 50 to 75%.

Question: For KLDGICWQV, which peptide exchange yield is on record?
Answer: The peptide exchange yield was 50 to 75%.

Question: TLYSMDLMKV was tested. Which peptide exchange yield did it give?
Answer: Its peptide exchange yield is 50 to 75%.

Question: For KLGPFLLNA, which peptide exchange yield is on record?
Answer: Its peptide exchange yield is 50 to 75%.

Question: With STLDGSLHAV as the binder, how does the peptide exchange yield read?
Answer: Its peptide exchange yield is 50 to 75%.

Question: For FLWNGEDSAL, which peptide exchange yield is on record?
Answer: Its peptide exchange yield is 50 to 75%.

Question: For TLDEYLTYL, which peptide exchange yield is on record?
Answer: The peptide exchange yield was 50 to 75%.

Question: Which peptide exchange yield does the source give for ILHEHHIFL here?
Answer: The peptide exchange yield was 50 to 75%.

Question: For SLAKHGIVAL, which peptide exchange yield is on record?
Answer: Its peptide exchange yield is 50 to 75%.

Question: For ALVSGGVAQA, which peptide exchange yield is on record?
Answer: Its peptide exchange yield is 50 to 75%.

Question: How did the peptide exchange yield turn out when ILDNVKNLL was run?
Answer: Its peptide exchange yield is 50 to 75%.

Question: Which peptide exchange yield does the source give for KVDGVVIQL here?
Answer: The peptide exchange yield was 50 to 75%.

Question: With FLDPAQRDL as the binder, how does the peptide exchange yield read?
Answer: Its peptide exchange yield is 50 to 75%.

Target: T1, HLA-A*02
Assay: UV-exchange ELISA (anti-b2m); yield 20%-49%
From the text: as §1, §2

Question: PLWGKVFYL was tested. Which peptide exchange yield did it give?
Answer: The peptide exchange yield was 20 to 49%.

Question: KTLDVFNIIL was tested. Which peptide exchange yield did it give?
Answer: Its peptide exchange yield is 20 to 49%.

Question: For GVLKVFLENV, which peptide exchange yield is on record?
Answer: The peptide exchange yield was 20 to 49%.

Question: For FLGDYVENL, which peptide exchange yield is on record?
Answer: The peptide exchange yield was 20 to 49%.

Reference: patent publication US20170056486A1 (IMMATICS BIOTECHNOLOGIES, published 2017)
